Paper PMC2615620 (Nucleic Acids Research, 2008)

T1: Snu17 of the RES complex purified from yeast (S. cerevisiae (endogenous in the …, UniProt P40565 1-148))
T1 sequence (looked up): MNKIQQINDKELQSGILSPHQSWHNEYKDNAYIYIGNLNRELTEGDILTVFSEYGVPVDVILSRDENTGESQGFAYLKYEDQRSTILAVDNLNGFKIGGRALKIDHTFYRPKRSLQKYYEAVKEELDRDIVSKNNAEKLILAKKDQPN

B1: Bud13 of the RES complex purified from yeast (natural protein, UniProt P46947 1-266, looked up)
chain: MALHQYLSETYGPTKPKNKTKKKKKESKSDANSDKTSLIVKERLSTLQQEQEKSGVASFSKFDKQKSKNIWKNLETNELSHAITHPSASSITGNESKNDLKEIRAQEPLVTVADKSKTRKTIYRDAQGHKIQEDSKIDDSSFSRSKYEDEKAAEREQYLKNLNMGDVQKLGINVDAHDKKKNQTASSLTIEDPAITFTHDKERTVKTSLLGRKLYDKPAPENRFAIMPGSRWDGVHRSNGFEEKWFAKQNEINEKKVQSYTLQEDY
B2: Pml1 of the RES complex purified from yeast (natural protein, UniProt Q07930 1-204, looked up)
chain: MFHRRKRPYNTRNYGHDDKKFKSQYIDIMPDFSPSGLLELESNNKEGIALKHVEPQDAISPDNYMDMLGLEARDRTMYELVIYRKNDKDKGPWKRYDLNGRSCYLVGRELGHSLDTDLDDRTEIVVADIGIPEETSSKQHCVIQFRNVRGILKCYVMDLDSSNGTCLNNVVIPGARYIELRSGDVLTLSEFEEDNDYELIFMNV

Molecular target: T1, Snu17 of the RES complex purified from …
Assay: SEC

| Binder | stoichiometry N |
| --- | --- |
| B1 | 1 |
| B2 | 1 |
